Results: patent US20100260668A1 (published 2010)

T1: Placental GF (UniProt P49763-2 21-149, limits assumed)
T1 construct: Bought reagent; also called PlGF; PLGF
T1 sequence (looked up): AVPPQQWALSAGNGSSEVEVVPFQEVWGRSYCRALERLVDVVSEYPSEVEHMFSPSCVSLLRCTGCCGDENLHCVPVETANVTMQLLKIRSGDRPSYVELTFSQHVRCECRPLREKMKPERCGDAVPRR

T2: PlGF (UniProt P49763-2 21-149, limits assumed)
T2 construct: bought antigen coated on the ELISA plate; also called Placental GF
T2 sequence (looked up): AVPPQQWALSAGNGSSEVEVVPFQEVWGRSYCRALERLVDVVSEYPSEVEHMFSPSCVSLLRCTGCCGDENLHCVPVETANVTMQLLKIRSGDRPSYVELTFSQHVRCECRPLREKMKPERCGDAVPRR


Legend:
[1] = target: T1, Placental GF; experiment: Biacore SPR
[2] = target: T3, ErbB3 (ErbB3/FC Chimera-His tag) (UniProt P21860 20-643, limits assumed); experiment: SPR (Biacore); parent antibody
T3 construct: extracellular domain
Protocol: The BIACORE assay (Biacore, Inc, Piscataway, N.J.) determines the affinity of antibodies or DVD-Ig with kinetic measurements of on-rate and off-rate constants. Binding of antibodies or DVD-Ig to a target antigen (for example, a purified recombinant target antigen) is determined by surface plasmon resonance-based measurements with a Biacore® 1000 or 3000 instrument (Biacore® AB, Uppsala, Sweden) using running HBS-EP (10 mM HEPES [pH 7.4], 150 mM NaCl, 3 mM EDTA, and 0.005% surfactant P20) at 25° C. […] For example, approximately 5000 RU of goat anti-mouse IgG, (Fcγ), fragment specific polyclonal antibody (Pierce Biotechnology Inc, Rockford, Ill.) diluted in 10 mM sodium acetate (pH 4.5) is directly immobilized across a CM5 research grade biosensor chip using a standard amine coupling kit according to manufacturer's instructions and procedures at 25 μg/ml. Unreacted moieties on the biosensor surface are blocked with ethanolamine. Modified carboxymethyl dextran surface in flowcell 2 and 4 is used as a reaction surface. Unmodified carboxymethyl dextran without goat anti-mouse IgG in flow cell 1 and 3 is used as the reference surface. For kinetic analysis, rate equations derived from the 1:1 Langmuir binding model are fitted simultaneously to association and dissociation phases of all eight injections (using global fit analysis) with the use of Biaevaluation 4.0.1 software. Purified antibodies or DVD-Ig are diluted in HEPES-buffered saline for capture across goat anti-mouse IgG specific reaction surfaces. Antibodies or DVD-Ig to be captured as a ligand (25 μg/ml) are injected over reaction matrices at a flow rate of 5 μl/min. The association and dissociation rate constants, kₒₙ (M⁻¹s⁻¹) and koff (s⁻¹) are determined under a continuous flow rate of 25 μl/min. Rate constants are derived by making kinetic binding measurements at different antigen concentrations ranging from 10-200 nM. The equilibrium dissociation constant (M) of the reaction between antibodies or DVD-Igs and the target antigen is then calculated from the kinetic rate constants by the following formula: KD=koff/kₒₙ. Binding is recorded as a function of time and kinetic rate constants are calculated.

[3] = target: T4, DLL4 ECD/His tag (R&D 1506-D4-050) (UniProt Q9NR61 27-529); experiment: direct bind ELISA, DLL4 on plate; DLL4 VD C-term.; HC Short, LC Short
T4 construct: extracellular domain; Bought antigen coated on the ELISA plate; not shown: His tag

[4] = target: T5, VEGF (UniProt P15692 27-191, limits assumed); experiment: direct bind ELISA, C-terminal VD
T5 construct: bought antigen coated on the ELISA plate
T5 sequence (P15692 other isoform, or with tags, fused parts or gaps limits assumed): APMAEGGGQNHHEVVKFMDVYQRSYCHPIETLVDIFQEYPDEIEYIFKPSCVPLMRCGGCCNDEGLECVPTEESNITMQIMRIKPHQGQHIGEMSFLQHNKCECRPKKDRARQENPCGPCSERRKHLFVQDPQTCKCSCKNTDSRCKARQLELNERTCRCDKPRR

[5] = target: T2, PlGF; experiment: direct bind ELISA, N-terminal VD

Binder	EC50 [3]	EC50 [4]	EC50 [5]	further results
DVD258 (bispecific antibody, human IgG1, kappa, N-terminal VD PlGF, C-terminal VD DLL4; also called VD258H; VD258L) heavy: not shown light: DIVLTQSPDSLAVSLGERVTMNCKSSQSLLNSGMRKSFLAWYQQKPGQSPKLLIYWASTRESGVPDRFTGSGSGTDFTLTISSVQAEDVAVYYCKQSYHLFTFGSGTKLEIKRTVAAPDIQMTQSPSSLSASVGDRVTITCRASQDVSTAVAWYQQKPGKAPKLLIYSASFLYSGVPSRFSGSGSGTDFTLTISSLQPEDFATTYYCQQSYTGTVTFGQGTKVEIKRTVAAPSVFIFPPSDEQLKSGTASVVCLLNNFYPREAKVQWKVDNALQSGNSQESVTEQDSKDSTYSLSSTLTLSKADYEKHKVYACEVTHQGLSSPVTKSFNRGEC				Kd [1]: < 0.254 nM; koff [1]: 0.00254 s⁻¹; kon [1]: > 1e+07 M⁻¹ s⁻¹
AB062 (antibody, human IgG1, kappa, V domains shown, also called AB062VH; AB062VL) VH: QVQLQQWGAGLLKPSETLSLTCAVYGGSFSGYYWSWIRQPPGKGLEWIGEINHSGSTNYNPSLKSRVTISVETSKNQFSLKLSSVTAADTAVYYCARDKWTWYFDLWGRGTLVTVSS VL: not shown				Kd [2]: 1.36 nM; koff [2]: 0.000117 s⁻¹; kon [2]: 86600 M⁻¹ s⁻¹
AB063 (antibody, human IgG1, kappa, V domains shown, also called AB063VH; AB063VL) VH: EVQLVESGGGLVQPGGSLRLSCAASGFTFSIYSMNWVRQAPGKGLEWVSYISSSSSTIYYADSVKGRFTISRDNAKNSLYLQMNSLRDEDTAVYYCARDRGDFDAFDIWGQGTMVTVSS VL: DIQMTQSPSSLSASVGDRVTITCQASQDITNYLNWYQQKPGKAPKLLIYDASNLETGVPSRFSGSGSGTDFTFTISSLQPEDIATYNCQQCENFPITFGQGTRLEIKR				Kd [2]: 0.15 nM; koff [2]: 0.000175 s⁻¹; kon [2]: 1.17e+06 M⁻¹ s⁻¹
DVD043 (bispecific antibody, human IgG1, kappa, DVD-Ig; HC short, LC short linker; also called DVD043H; DVD043L) heavy: not shown light: DIQMTQSPSSLSASVGDRVTITCSASQDISNYLNWYQQKPGKAPKVLIYFTSSLHSGVPSRFSGSGSGTDFTLTISSLQPEDFATYYCQQYSTVPWTFGQGTKVEIKRTVAAPDIQMTQSPSSLSASVGDRVTITCRASQDVSTAVAWYQQKPGKAPKLLIYSASFLYSGVPSRFSGSGSGTDFTLTISSLQPEDFATTYYCQQSYTGTVTFGQGTKVEIKRTVAAPSVFIFPPSDEQLKSGTASVVCLLNNFYPREAKVQWKVDNALQSGNSQESVTEQDSKDSTYSLSSTLTLSKADYEKHKVYACEVTHQGLSSPVTKSFNRGEC	0.67 nM			
DVD512 (bispecific antibody, human IgG1, lambda, L234A L235A, DVD-Ig; HC short, LC short linker; also called DVD512H; DVD512L) heavy: not shown light: DIQMTQSPSSLSASVGDRVTITCSASQDISNYLNWYQQKPGKAPKVLIYFTSSLHSGVPSRFSGSGSGTDFTLTISSLQPEDFATYYCQQYSTVPWTFGQGTKVEIKRTVAAPQAVVTQESALTTSPGETVTLTCRSSTGAVTTSNYANWVQEKPDHLFTGLIGGTNNRAPGVPARFSGSLIGDKAALTITGAQTEDEAIYFCALWYSNHWVFGGGTKLTVLGQPKAAPSVTLFPPSSEELQANKATLVCLISDFYPGAVTVAWKADSSPVKAGVETTTPSKQSNNKYAASSYLSLTPEQWKSHRSYSCQVTHEGSTVEKTVAPTECS	1.71 nM			
DVD468 (bispecific antibody, human IgG1, kappa, DVD-Ig; outer AB071 (VEGF), inner AB015 (DLL4); HC short, LC short linker; also called DVD468H; DVD468L) heavy: not shown light: DIQMTQSPSSLSASVGDRVTITCRASQVIRRSLAWYQQKPGKAPKLLIYAASNLASGVPSRFSGSGSGTDFTLTISSLQPEDFATYYCQQSNTSPLTFGQGTKVEIKRTVAAPDIQMTQSPSSLSASVGDRVTITCRASQDVSTAVAWYQQKPGKAPKLLIYSASFLYSGVPSRFSGSGSGTDFTLTISSLQPEDFATTYYCQQSYTGTVTFGQGTKVEIKRTVAAPSVFIFPPSDEQLKSGTASVVCLLNNFYPREAKVQWKVDNALQSGNSQESVTEQDSKDSTYSLSSTLTLSKADYEKHKVYACEVTHQGLSSPVTKSFNRGEC	2.28 nM			
DVD446 (bispecific antibody, human IgG1, kappa, DVD-Ig; outer AB071 (VEGF), inner AB069 (DLL4); HC short, LC short linker; also called DVD446H; DVD446L) heavy: not shown light: DIQMTQSPSSLSASVGDRVTITCRASQVIRRSLAWYQQKPGKAPKLLIYAASNLASGVPSRFSGSGSGTDFTLTISSLQPEDFATYYCQQSNTSPLTFGQGTKVEIKRTVAAPDIVMTQSPDSLAVSLGERATISCRASESVDNYGISFMKWFQQKPGQPPKLLIYAASNQGSGVPDRFSGSGSGTDFTLTISSLQAEDVAVYYCQQSKEVPWTFGGGTKVEIKRTVAAPSVFIFPPSDEQLKSGTASVVCLLNNFYPREAKVQWKVDNALQSGNSQESVTEQDSKDSTYSLSSTLTLSKADYEKHKVYACEVTHQGLSSPVTKSFNRGEC	13.9 nM			
DVD516 (bispecific antibody, human IgG1, lambda, DVD-Ig; outer AB071 (VEGF), inner AB073 (DLL4); HC short, LC short linker; also called DVD516H; DVD516L) heavy: not shown light: DIQMTQSPSSLSASVGDRVTITCRASQVIRRSLAWYQQKPGKAPKLLIYAASNLASGVPSRFSGSGSGTDFTLTISSLQPEDFATYYCQQSNTSPLTFGQGTKVEIKRTVAAPQAVVTQESALTTSPGETVTLTCRSSTGAVTTSNYANWVQEKPDHLFTGLIGGTNNRAPGVPARFSGSLIGDKAALTITGAQTEDEAIYFCALWYSNHWVFGGGTKLTVLGQPKAAPSVTLFPPSSEELQANKATLVCLISDFYPGAVTVAWKADSSPVKAGVETTTPSKQSNNKYAASSYLSLTPEQWKSHRSYSCQVTHEGSTVEKTVAPTECS	4.33 nM			
DVD492 (bispecific antibody, human IgG1, kappa, DVD-Ig; outer AB071 (VEGF), inner AB072 (DLL4); HC short, LC short linker; also called DVD492H; DVD492L) heavy: not shown light: DIQMTQSPSSLSASVGDRVTITCRASQVIRRSLAWYQQKPGKAPKLLIYAASNLASGVPSRFSGSGSGTDFTLTISSLQPEDFATYYCQQSNTSPLTFGQGTKVEIKRTVAAPDIQMTQSSSYLSVSLGGRVTITCKASDHINNWLAWYQQKPGNAPRLLISGATSLETGVPSRFSGSGSGKDYTLSITSLQTEDVATYYCQQYWSIPLTFGAGTKLELKRTVAAPSVFIFPPSDEQLKSGTASVVCLLNNFYPREAKVQWKVDNALQSGNSQESVTEQDSKDSTYSLSSTLTLSKADYEKHKVYACEVTHQGLSSPVTKSFNRGEC	1.77 nM			
DVD543 (bispecific antibody, human IgG1, kappa, HC linker short, LC linker short; also called DVD-Ig DVD543) heavy: not shown light: AIQMTQSSSSFSVSLGDRVTITCKASEDIYNRFAWYQQKPGNAPRLLISGAASLEAGVPSRFSGSGSGQDYTLSITSLQTEDVATYYCQQYWSTPWTFGGGTKLEIKRTVAAPDIQMTQSPSSLSASVGDRVTITCRASQDVSTAVAWYQQKPGKAPKLLIYSASFLYSGVPSRFSGSGSGTDFTLTISSLQPEDFATYYCQQSYTTPPTFGQGTKVEIKRTVAAPSVFIFPPSDEQLKSGTASVVCLLNNFYPREAKVQWKVDNALQSGNSQESVTEQDSKDSTYSLSSTLTLSKADYEKHKVYACEVTHQGLSSPVTKSFNRGEC		1120 nM	0.14 nM	
DVD551 (bispecific antibody, human IgG1, kappa, HC linker long, LC linker long; also called DVD-Ig DVD551) heavy: not shown light: AIQMTQSSSSFSVSLGDRVTITCKASEDIYNRFAWYQQKPGNAPRLLISGAASLEAGVPSRFSGSGSGQDYTLSITSLQTEDVATYYCQQYWSTPWTFGGGTKLEIKRTVAAPSVFIFPPDIQMTQSPSSLSASVGDRVTITCRASQDVSTAVAWYQQKPGKAPKLLIYSASFLYSGVPSRFSGSGSGTDFTLTISSLQPEDFATYYCQQSYTTPPTFGQGTKVEIKRTVAAPSVFIFPPSDEQLKSGTASVVCLLNNFYPREAKVQWKVDNALQSGNSQESVTEQDSKDSTYSLSSTLTLSKADYEKHKVYACEVTHQGLSSPVTKSFNRGEC		1590 nM	97 nM	
DVD559 (bispecific antibody, human IgG1, kappa, HC linker long, LC linker short; also called DVD-Ig DVD559) heavy: not shown light: AIQMTQSSSSFSVSLGDRVTITCKASEDIYNRFAWYQQKPGNAPRLLISGAASLEAGVPSRFSGSGSGQDYTLSITSLQTEDVATYYCQQYWSTPWTFGGGTKLEIKRTVAAPDIQMTQSPSSLSASVGDRVTITCRASQDVSTAVAWYQQKPGKAPKLLIYSASFLYSGVPSRFSGSGSGTDFTLTISSLQPEDFATYYCQQSYTTPPTFGQGTKVEIKRTVAAPSVFIFPPSDEQLKSGTASVVCLLNNFYPREAKVQWKVDNALQSGNSQESVTEQDSKDSTYSLSSTLTLSKADYEKHKVYACEVTHQGLSSPVTKSFNRGEC		39.2 nM	0.13 nM	
DVD561 (bispecific antibody, human IgG1, kappa, outer AB074 (PlGF), inner AB071 (VEGF); HC linker long, LC linker short; also called DVD-Ig DVD561) heavy: not shown light: AIQMTQSSSSFSVSLGDRVTITCKASEDIYNRFAWYQQKPGNAPRLLISGAASLEAGVPSRFSGSGSGQDYTLSITSLQTEDVATYYCQQYWSTPWTFGGGTKLEIKRTVAAPDIQMTQSPSSLSASVGDRVTITCRASQVIRRSLAWYQQKPGKAPKLLIYAASNLASGVPSRFSGSGSGTDFTLTISSLQPEDFATYYCQQSNTSPLTFGQGTKVEIKRTVAAPSVFIFPPSDEQLKSGTASVVCLLNNFYPREAKVQWKVDNALQSGNSQESVTEQDSKDSTYSLSSTLTLSKADYEKHKVYACEVTHQGLSSPVTKSFNRGEC		241 nM	1.04 nM	
DVD581 (bispecific antibody, human IgG1, kappa, HC linker long, LC linker long; also called DVD-Ig DVD581) heavy: not shown light: DIVLTQSPDSLAVSLGERVTMNCKSSQSLLNSGMRKSFLAWYQQKPGQSPKLLIYWASTRESGVPDRFTGSGSGTDFTLTISSVQAEDVAVYYCKQSYHLFTFGSGTKLEIKRTVAAPSVFIFPPDIQMTQSPSSLSASVGDRVTITCRASQDVSTAVAWYQQKPGKAPKLLIYSASFLYSGVPSRFSGSGSGTDFTLTISSLQPEDFATYYCQQSYTTPPTFGQGTKVEIKRTVAAPSVFIFPPSDEQLKSGTASVVCLLNNFYPREAKVQWKVDNALQSGNSQESVTEQDSKDSTYSLSSTLTLSKADYEKHKVYACEVTHQGLSSPVTKSFNRGEC		35.9 nM	0.39 nM	
DVD583 (bispecific antibody, human IgG1, kappa, outer AB047 (PlGF), inner AB071 (VEGF); HC linker long, LC linker long; also called DVD-Ig DVD583) heavy: not shown light: DIVLTQSPDSLAVSLGERVTMNCKSSQSLLNSGMRKSFLAWYQQKPGQSPKLLIYWASTRESGVPDRFTGSGSGTDFTLTISSVQAEDVAVYYCKQSYHLFTFGSGTKLEIKRTVAAPSVFIFPPDIQMTQSPSSLSASVGDRVTITCRASQVIRRSLAWYQQKPGKAPKLLIYAASNLASGVPSRFSGSGSGTDFTLTISSLQPEDFATYYCQQSNTSPLTFGQGTKVEIKRTVAAPSVFIFPPSDEQLKSGTASVVCLLNNFYPREAKVQWKVDNALQSGNSQESVTEQDSKDSTYSLSSTLTLSKADYEKHKVYACEVTHQGLSSPVTKSFNRGEC		560 nM	0.32 nM	
